According to paper PMC11618653:

Experiments:
[1] = molecular target: cysteine desulfurase NFS1 (subunit of the (NIA)2 subcomplex) (human)
[2] = molecular target: iron-sulfur scaffold protein ISCU2, iron-loaded (human) (UniProt Q9H1K1)
[3] = molecular target: cysteine desulfurase NFS1 (subunit of the (NIA)2 subcomplex) (human); remark: listed apart in the source

UniProt Q9H1K1, sequence (Q9H1K1 35-167): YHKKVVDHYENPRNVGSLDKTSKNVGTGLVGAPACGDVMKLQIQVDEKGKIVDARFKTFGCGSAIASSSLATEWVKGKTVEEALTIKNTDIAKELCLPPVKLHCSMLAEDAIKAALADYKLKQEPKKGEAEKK

initial rate of [2Fe-2S] cluster synthesis (CD) at 5 µM FDX2 variant, against wild-type FDX2 [1] [fold higher] | also measured | Substance
< 4 | – | FDX2 truncation variant lacking 5 C-terminal residues (ΔC5) (from UniProt Q6P4F2 53-181) (domain or fragment)
< 4 | – | FDX2 truncation variant lacking 10 C-terminal residues (ΔC10) (from UniProt Q6P4F2 53-176) (domain or fragment)
– | initial rates of [2Fe-2S] cluster synthesis (CD) against the concentration of the FDX2 variant, maximum at 1.5 µM, against wild-type FDX2 [2]: 2 fold slower | FDX2-CL variant (cluster-binding loop residues 109EASL112 replaced with GGSC) (from UniProt Q6P4F2 66-183) (natural protein)
– | initial rate of [2Fe-2S] cluster synthesis on ISCU2 (CD), dithionite-reduced ferredoxin, against dithionite-reduced wild-type FDX2 [3]: 4 fold slower | FDX2-DA variant (Asp137-Asp138 exchanged to Ala) (from UniProt Q6P4F2 66-183) (natural protein)
